This data set concerns the molecule itself. Kind of data set: size-exclusion chromatography of the PR-LBD/tanaproget complex.

B1: Human progesterone receptor ligand binding domain (PR-LBD), polypeptide following thrombin cleavage of the GST fusion (receptor)
chain: GSPGQDIQLIPPLINLLMSIEPDVIYAGHDNTKPDTSSSLLTSLNQLGERQLLSVVKWSKSLPGFRNLHIDDQITLIQYSWMSLMVFGLGWRSYKHVSGQMLYFAPDLILNEQRMKESSFYSLCLTMWQIPQEFVKLQVSQEEFLCMKVLLLLNTIPLEGLRSQTQFEEMRSSYIRELIKAIGLRQKGVVSSSQRFYQLTKLLDNLHDLVKQLHLYCLNTFIQSRALSVEFPEMMSEVIAAQLPKILAGMVKPLLFHKK
notes: In the size-exclusion run and in the crystal each chain carried the small molecule tanaproget; also called human PR-LBD; PR-LBD (675-933)
Regarding B1, the binding result was “binds”.

For the origin of these results see patent publication US20060074081A1 (Pfizer, published 2006).
